Reference: paper PMC8010718, “Direct coupling of oligomerization and oligomerization-driven endocytosis of the dopamine transporter to its conformational mechanics and activity” (The Journal of Biological Chemistry, 2021)

B1: endogenous HA-DAT of HA-DAT knock-in mice (natural protein, mouse, UniProt Q61327 1-619, looked up)
chain: MSKSKCSVGPMSSVVAPAKEPNAVGPREVELILVKEQNGVQLTNSTLINPPQTPVEVQERETWSKKIDFLLSVIGFAVDLANVWRFPYLCYKNGGGAFLVPYLLFMVIAGMPLFYMELALGQFNREGAAGVWKICPVLKGVGFTVILISFYVGFFYNVIIAWALHYFFSSFTMDLPWIHCNNTWNSPNCSDAHSSNSSDGLGLNDTFGTTPAAEYFERGVLHLHQSRGIDDLGPPRWQLTACLVLVIVLLYFSLWKGVKTSGKVVWITATMPYVVLTALLLRGVTLPGAMDGIRAYLSVDFYRLCEASVWIDAATQVCFSLGVGFGVLIAFSSYNKFTNNCYRDAIITTSINSLTSFSSGFVVFSFLGYMAQKHNVPIRDVATDGPGLIFIIYPEAIATLPLSSAWAAVFFLMLLTLGIDSAMGGMESVITGLVDEFQLLHRHRELFTLGIVLATFLLSLFCVTNGGIYVFTLLDHFAAGTSILFGVLIEAIGVAWFYGVQQFSDDIKQMTGQRPNLYWRLCWKLVSPCFLLYVVVVSIVTFRPPHYGAYIFPDWANALGWIIATSSMAMVPIYATYKFCSLPGSFREKLAYAITPEKDRQLVDRGEVRQFTLRHWLLV
notes: also called endogenous mouse HA-DAT; source: endogenous, striatal synaptosomes from HA-DAT knock-in mice, in lysate
B2: YFP- and HA-epitope tagged dopamine transporter (YFP-HA-DAT), wild type (natural protein, human, UniProt Q01959 1-620, looked up)
chain: MSKSKCSVGLMSSVVAPAKEPNAVGPKEVELILVKEQNGVQLTSSTLTNPRQSPVEAQDRETWGKKIDFLLSVIGFAVDLANVWRFPYLCYKNGGGAFLVPYLLFMVIAGMPLFYMELALGQFNREGAAGVWKICPILKGVGFTVILISLYVGFFYNVIIAWALHYLFSSFTTELPWIHCNNSWNSPNCSDAHPGDSSGDSSGLNDTFGTTPAAEYFERGVLHLHQSHGIDDLGPPRWQLTACLVLVIVLLYFSLWKGVKTSGKVVWITATMPYVVLTALLLRGVTLPGAIDGIRAYLSVDFYRLCEASVWIDAATQVCFSLGVGFGVLIAFSSYNKFTNNCYRDAIVTTSINSLTSFSSGFVVFSFLGYMAQKHSVPIGDVAKDGPGLIFIIYPEAIATLPLSSAWAVVFFIMLLTLGIDSAMGGMESVITGLIDEFQLLHRHRELFTLFIVLATFLLSLFCVTNGGIYVFTLLDHFAAGTSILFGVLIEAIGVAWFYGVGQFSDDIQQMTGQRPSLYWRLCWKLVSPCFLLFVVVVSIVTFRPPHYGAYIFPDWANALGWVIATSSMAMVPIYAAYKFCSLPGSFREKLAYAIAPEKDRELVDRGEVRQFTLRHWLKV
notes: dopamine transporter (DAT), human; also called WT YFP-HA-DAT; wtDAT; source: PAE cells, stably expressing, in intact cells and in lysate

Tests used:
[1] = target: the molecule itself; experiment: SDS-resistant oligomers on SDS-PAGE and Western blot; striatal synaptosomes of HA-DAT knock-in mice with vehicle, AIM-100 or ALs (20-40 μM, 2 h, 37 °C) in KRHG or KRHG/F12 (1:1); lysates in Laemmli buffer 30 min 42 °C; DAT antibody
[2] = target: the molecule itself; experiment: SDS-resistant oligomers on SDS-PAGE and Western blot; PAE cells stably expressing the tagged transporter, incubated with vehicle (DMSO), AIM-100 or ALs (20 μM, 2 h, 37 °C), with or without cocaine; lysis in TGH with 1% deoxycholate; Laemmli buffer 5 min 95 °C; 7.5% SDS-PAGE; GFP antibody

Row | Protein | stoichiometry N [1] | stoichiometry N [2]
1 | B1 | 3 | –
2 | B2 | – | 3
